From patent publication US20240084003A1 (SIMCERE ZAIMING PHARMACEUTICAL, published 2024) come the findings set out here.

For one experiment, the target named is T1, human CD22 domain1-4-His (human, UniProt P20273 20-425).
T1 construct: also called hCD22 domain1-4-His; not shown: His tag
T1 sequence: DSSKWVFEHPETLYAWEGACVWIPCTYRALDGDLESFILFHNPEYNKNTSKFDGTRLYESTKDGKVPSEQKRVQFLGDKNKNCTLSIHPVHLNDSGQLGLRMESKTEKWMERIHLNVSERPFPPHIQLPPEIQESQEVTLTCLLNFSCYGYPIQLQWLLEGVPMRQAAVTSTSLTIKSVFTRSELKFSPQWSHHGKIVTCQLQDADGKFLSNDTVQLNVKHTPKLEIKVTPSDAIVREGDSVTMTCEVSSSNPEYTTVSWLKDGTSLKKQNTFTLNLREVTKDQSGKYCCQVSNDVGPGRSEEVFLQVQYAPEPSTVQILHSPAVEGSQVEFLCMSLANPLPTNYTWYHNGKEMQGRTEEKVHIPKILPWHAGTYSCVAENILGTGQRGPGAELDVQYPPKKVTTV
As to the kind of experiment: ELISA, plate coated with human CD22 domain1-4-His. In general terms: An ELISA detects its analyte on a solid surface through an enzyme-linked reagent.

For experiment [1], the target named is T2, human CD22-ECD-His protein (human, UniProt P20273 20-687).
T2 construct: Recombinant, from HEK293E cells; also called hCD22-ECD-His; human CD22-His protein; not shown: His tag
T2 sequence: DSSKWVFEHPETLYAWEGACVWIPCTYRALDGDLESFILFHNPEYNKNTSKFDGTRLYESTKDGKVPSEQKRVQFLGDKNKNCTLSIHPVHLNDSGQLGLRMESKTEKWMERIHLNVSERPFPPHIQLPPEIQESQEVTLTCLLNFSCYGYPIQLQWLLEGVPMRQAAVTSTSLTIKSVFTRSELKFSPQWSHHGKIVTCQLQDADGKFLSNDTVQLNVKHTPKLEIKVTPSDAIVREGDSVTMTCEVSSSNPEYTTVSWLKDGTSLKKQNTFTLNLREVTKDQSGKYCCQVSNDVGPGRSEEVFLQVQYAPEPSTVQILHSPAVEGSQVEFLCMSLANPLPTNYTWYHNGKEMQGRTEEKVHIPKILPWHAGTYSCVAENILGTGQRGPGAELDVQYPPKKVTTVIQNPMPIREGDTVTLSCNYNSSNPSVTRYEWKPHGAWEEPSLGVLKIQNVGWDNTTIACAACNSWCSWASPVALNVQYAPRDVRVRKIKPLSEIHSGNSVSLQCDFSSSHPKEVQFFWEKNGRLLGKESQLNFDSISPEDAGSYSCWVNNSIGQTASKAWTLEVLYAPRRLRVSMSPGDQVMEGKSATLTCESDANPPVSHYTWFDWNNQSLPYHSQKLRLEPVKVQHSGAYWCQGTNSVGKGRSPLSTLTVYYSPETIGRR
As to the kind of experiment: SPR (Biacore), antibody captured on Protein A chip, CD22-ECD-His in solution. In a few lines:
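Antibody captured on Protein A chip, then human CD22-ECD-His injected for 240 s at 30 μL/min, 5 concentrations from 200 nM (1:1 dilution), dissociation up to 600 s, in HBS-EP+ at 25° C. Responses double-referenced; apparent KD and kinetic constants fitted to a Langmuir 1:1 model.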
On the technique in general: Surface plasmon resonance follows binding to a sensor surface in real time, without labels.

For experiment [2], the target named is T3, murine CD22 protein (ACROBiosystems, SI2-M52Ha) (murine, UniProt P35329 22-708).
T3 construct: extracellular domain; also called murine CD22-ECD; murine CD22-ECD-His
T3 sequence (looked up): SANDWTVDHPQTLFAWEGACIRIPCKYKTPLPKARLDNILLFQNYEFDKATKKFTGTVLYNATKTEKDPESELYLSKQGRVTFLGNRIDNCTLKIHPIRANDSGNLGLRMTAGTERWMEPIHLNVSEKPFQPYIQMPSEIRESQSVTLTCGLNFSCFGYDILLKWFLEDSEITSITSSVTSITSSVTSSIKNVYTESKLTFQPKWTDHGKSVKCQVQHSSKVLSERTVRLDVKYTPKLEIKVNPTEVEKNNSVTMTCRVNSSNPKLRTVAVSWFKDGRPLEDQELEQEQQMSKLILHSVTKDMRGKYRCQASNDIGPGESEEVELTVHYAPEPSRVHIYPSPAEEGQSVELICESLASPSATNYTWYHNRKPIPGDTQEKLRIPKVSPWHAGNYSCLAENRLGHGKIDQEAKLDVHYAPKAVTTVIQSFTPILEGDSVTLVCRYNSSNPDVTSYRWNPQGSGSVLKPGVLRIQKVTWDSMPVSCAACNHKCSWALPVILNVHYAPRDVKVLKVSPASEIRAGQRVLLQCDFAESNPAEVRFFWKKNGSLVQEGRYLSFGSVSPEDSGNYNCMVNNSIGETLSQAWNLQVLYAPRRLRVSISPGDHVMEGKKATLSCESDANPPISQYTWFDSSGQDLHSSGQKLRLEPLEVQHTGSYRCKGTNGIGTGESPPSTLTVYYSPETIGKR
Nature of the experiment: ELISA, murine CD22-ECD-His coated. The method, boiled down: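 First, CD22 (2 μg/mL, PBS) was coated at 4° C overnight. Second, wells were blocked with PBS containing 2% BSA for 2 h at room temperature. Third, antibody and then HRP secondary were each incubated 2 h at 37° C. Finally, TMB colour was stopped with HCl.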

Experiment [3] concerns the target T4, monkey CD22 protein (ACROBiosystems, SI2-R52Ha) (monkey (rhesus monkey in paragraph 148), UniProt H9G1X2 18-686).
T4 construct: extracellular domain; also called monkey CD22-ECD; monkey CD22-ECD-His
T4 sequence: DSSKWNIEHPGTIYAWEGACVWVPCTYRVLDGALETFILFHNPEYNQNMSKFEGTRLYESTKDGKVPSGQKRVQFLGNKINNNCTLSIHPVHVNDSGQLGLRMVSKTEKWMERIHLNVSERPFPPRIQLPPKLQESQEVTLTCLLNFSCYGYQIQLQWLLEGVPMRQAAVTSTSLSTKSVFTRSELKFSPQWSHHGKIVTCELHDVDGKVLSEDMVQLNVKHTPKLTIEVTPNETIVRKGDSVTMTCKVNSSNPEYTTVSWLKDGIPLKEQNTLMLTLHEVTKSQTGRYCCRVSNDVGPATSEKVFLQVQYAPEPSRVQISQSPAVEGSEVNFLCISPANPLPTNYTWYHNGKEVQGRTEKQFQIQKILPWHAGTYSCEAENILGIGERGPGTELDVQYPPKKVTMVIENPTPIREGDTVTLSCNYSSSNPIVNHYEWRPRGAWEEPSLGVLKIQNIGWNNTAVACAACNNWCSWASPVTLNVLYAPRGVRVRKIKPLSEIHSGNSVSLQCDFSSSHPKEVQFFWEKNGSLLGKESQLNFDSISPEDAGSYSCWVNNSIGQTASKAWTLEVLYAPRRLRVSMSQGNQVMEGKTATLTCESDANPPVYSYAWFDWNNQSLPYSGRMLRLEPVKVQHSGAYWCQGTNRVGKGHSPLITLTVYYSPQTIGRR
As to the kind of experiment: ELISA, monkey CD22-ECD-His coated. As for the experimental part: In order to detect the binding activity of CD22 human-murine chimeric antibodies to CD22 protein, the purified human CD22-ECD-His protein obtained in Example 2 was diluted with PBS to a final concentration of 2 μg/mL, and then added to 96-well ELISA plate at 100 μl/well. The plate was sealed with plastic film and incubated overnight at 4° C., the plate was washed 2 times with PBS the next day, and then a blocking solution [PBS+2% (w/w) BSA] was added for blocking at room temperature for 2 hours. […] After incubation at 37° C. for 2 hours, the plate was washed 3 times with PBS. HRP (horseradish peroxidase)-labeled secondary antibody (purchased from Sigma, catalog number: A0170) was added, and incubated at 37° C. for 2 hours, and the plate was washed 5 times with PBS. TMB substrate was added at 50 μl/well, and incubated at room temperature for 30 minutes, then a stop solution (1.0 N HCl) was added at 50 μl/well.
In order to detect the species cross-binding activity of the chimeric antibodies, an ELISA plate was coated with commercial murine CD22 protein (ACROBiosystems, catalog number: SI2-M52Ha) and monkey CD22 protein (ACROBiosystems, catalog number: SI2-R52Ha), respectively, and the ELISA detection was performed according to the method in Example 5.1.

Experiment [4] deals with T5, monkey CD22 (full length, on HEK293T cells) (monkey).
T5 construct: NCBI XP_014979161.2; also called HEK293T-monkey CD22; HEK293T cells overexpressing monkey CD22
T5 chain: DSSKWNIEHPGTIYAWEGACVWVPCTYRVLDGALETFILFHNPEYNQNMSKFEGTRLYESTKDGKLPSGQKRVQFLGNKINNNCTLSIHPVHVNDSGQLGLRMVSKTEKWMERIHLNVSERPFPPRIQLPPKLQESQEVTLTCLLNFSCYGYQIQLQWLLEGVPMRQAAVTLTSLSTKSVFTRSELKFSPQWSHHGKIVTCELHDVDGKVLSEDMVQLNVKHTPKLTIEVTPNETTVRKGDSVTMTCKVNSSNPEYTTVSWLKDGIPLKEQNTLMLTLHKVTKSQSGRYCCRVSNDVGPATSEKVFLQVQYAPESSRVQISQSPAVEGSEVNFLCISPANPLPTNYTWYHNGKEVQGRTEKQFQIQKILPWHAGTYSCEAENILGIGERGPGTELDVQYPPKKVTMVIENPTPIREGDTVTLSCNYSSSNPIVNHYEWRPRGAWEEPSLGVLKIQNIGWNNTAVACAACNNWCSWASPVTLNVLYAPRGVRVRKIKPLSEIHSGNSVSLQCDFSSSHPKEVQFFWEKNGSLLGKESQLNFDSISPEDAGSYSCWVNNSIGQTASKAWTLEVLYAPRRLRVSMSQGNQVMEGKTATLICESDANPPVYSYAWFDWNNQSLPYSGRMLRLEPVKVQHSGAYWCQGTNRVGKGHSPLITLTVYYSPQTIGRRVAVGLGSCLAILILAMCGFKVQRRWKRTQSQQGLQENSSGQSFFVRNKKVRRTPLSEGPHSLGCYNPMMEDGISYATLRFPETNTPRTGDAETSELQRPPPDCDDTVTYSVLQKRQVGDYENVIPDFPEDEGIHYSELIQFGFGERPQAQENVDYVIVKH
As to the kind of experiment: FACS, HEK293T-monkey CD22 cells (293T as parent cells). An excerpt: The required cells were scale-up cultured in a T-75 cell culture flask to the logarithmic growth phase. For the adherent cell CHO-K1, the medium was aspirated, the cells were washed 2 times with PBS buffer, and then digested with trypsin. After the digestion was terminated, the cells were washed 2 times with PBS buffer. For suspension cell Raji, the medium supernatant was directly centrifuged and discarded, and the cell pellet was washed 2 times with PBS. After counting the cells in the previous step, the cell pellet was resuspended with [PBS+2% (w/w) BSA] blocking solution to 2×10⁶ cells/ml, and added to a 96-well FACS reaction plate at 50 μl/well, and then the chimeric antibody test sample was added at 50 μl/well, and incubated on ice for 2 hours. The mixture was centrifuged and washed 3 times with PBS buffer, Alexa Flour 488-labeled secondary antibody (purchased from Invitrogen, catalog number: A-11013) was added at 50 μl/well, and incubated on ice for 1 hour. The obtained mixture was centrifuged and washed 5 times with PBS, and FACS (FACS Canto™, purchased from BD Company) was used for detection and result analysis. Data analysis was performed by software (CellQuest) to obtain the mean fluorescence density (MFI)of the cells. And then software (GraphPad Prism8) was used for analysis, data fitting, and EC50 value calculation. […] The same method was used to detect the binding of the chimeric antibodies to endogenous CD22-negative cell MoLT4 cells (purchased from ATCC, CRL-1582) and CHO-K1 cells.
HEK293T-monkey CD22 cells were subjected to FACS detection and data analysis according to the method in Example 5.2.

A word on the Kd: it is the concentration at which binding is half-saturated. For orientation: koff means the rate constant with which the complex falls apart. For orientation: kon means the rate constant with which the complex forms.

B1: F2.180.16 (antibody, human IgG1, lambda, V domains shown)
VH: EVKLVESGGGLVLPGGSLKISCAASGFTFSDYYMYWIRQTPDKRLEWVAYISNTGYSTFYPDSVKGRFTVSRDNAKNTLYLQMSRLQSEDTAMYYCARHGILYAMDYWGQGTSVTVSS
VL: QPVLTQSSSASFSLGASAKLTCTLSSQYSTYTIGWYQQQPLKPPKYVMELKHDGSRHTGDGIPDRFSGSSSGADRYLSISNIQPEDEATYICGVGDTIKEQFMYVFGGGTKVTVLG
notes: Chimeric IgG1 lambda
As to B1, the binding result with human CD22 domain1-4-His was “no binding”. In experiment [1], this molecule displayed a Kd of 18.4 nM, a koff of 0.000155 s⁻¹ and a kon of 8450 M⁻¹ s⁻¹.

B2: m971-hIgG1 (antibody, V domains shown)
VH: QVQLQQSGPGLVKPSQTLSLTCAISGDSVSSNSAAWNWIRQSPSRGLEWLGRTYYRSKWYNDYAVSVKSRITINPDTSKNQFSLQLNSVTPEDTAVYYCAREVTGDLEDAFDIWGQGTMVTVSS
VL: DIQMTQSPSSLSASVGDRVTITCRASQTIWSYLNWYQQRPGKAPNLLIYAASSLQSGVPSRFSGRGSGTDFTLTISSLQAEDFATYYCQQSYSIPQTFGQGTKLEIKR
notes: Control antibody; variable regions from US 8,591,889 B on human IgG1 constant regions
As to B2, the figures for the binding result in experiment [2], in experiment [3] and in experiment [4] were “no binding (tested: 100 nM)”, “no binding (tested: 100 nM)” and “no binding (tested: 10 nM)”, respectively.

B3: F1.60.9 (antibody, human IgG1, kappa, V domains shown)
VH: QVQLKESGPGLVAPSQSLSITCTVSGLSLNNYGVSWVRQPPGKGLEWLGVIWGDGSTNYHSALISRLSISKDNSKSQVFLKLNSLHTDDTATYYCAINWGDYWGQGTTLIVSS
VL: DIKMTQSPSSMNASLGERVTITCKASQDINSYLSWFQQKPGKSPKILIYRANRLIDGVPSRFSGSGSGQDYSLTISSLEYEDMGIYYCLQYGVFPLTFGAGTKLELKR
notes: Chimeric IgG1 kappa
On to B3, for which, in the experiment with human CD22 domain1-4-His, the binding result is reported as “no binding”. In experiment [1], this molecule gave a Kd of 0.254 nM, a koff of 7.64e-05 s⁻¹ and a kon of 301000 M⁻¹ s⁻¹.
